# Reference: doi:10.1101/2021.07.08.451529 (bioRxiv, 2021)
# B1: recombinant C. elegans cytoplasmic malate dehydrogenase MDH-1 (F46E10.10) (enzyme)
# chain: MSAPLRVLVTGAAGQIGYSIVIRIADGTVFGKEQPVELVLLDVPQCSNILEGVVFELQDCALPTLFSVVAVTDEKSAFTGIDYAFLVGAMPRREGMERKDLLAANVKIFKSQGKALAEYAKPTTKVIVVGNPANTNAFIAAKYAAGKIPAKNFSAMTRLDHNRALAQLALKTGTTIGNVKNVIIWGNHSGTQFPDVTHATVNKNGTETDAYAAVGDNAFLQGPFIATVQKRGGVIIEKRKLSSAMSAAKAACDHIHDWHFGTKAGQFVSMAVPSDGSYGIPQGLIFSFPVTIEGGEWKIVQGLSFDDFAKGKIAATTKELEEERDDALKACDDANIA
# What was measured:
# [1] = target: recombinant C. elegans mitochondrial malate dehydrogenase MDH-2 (F20H11.3), mitochondrial import sequence removed (C. elegans); assay: SEC
# SEC = target: the molecule itself; assay: SEC
Molecule,stoichiometry N [1],stoichiometry N (SEC)
"recombinant C. elegans mitochondrial malate dehydrogenase MDH-2 (F20H11.3), mitochondrial import sequence removed (enzyme)",2,–
B1,–,2
